pEC50: −log10 of the molar value.
Target: human CD47 expressed on cells (CD47 expressing CHO cells, Jurkat, HL60, DLD1, Raji) (human) (UniProt Q08722)
Assay: flow cytometry on human red blood cells, donor 2, MFI; EC50 (nM) table beside the legend; control whose curve stays low

IgG (antibody) gave a pEC50 of 10.10.

From US20200247886A1
